Laboratory results from the supplement of paper PMC12764529.
± gives the half width of the 95% confidence interval.

Key:
[1] = folding stability dG unfold from trypsin proteolysis; higher = more stable
Outline: (§1)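 Sequencing followed digestion of designed mini-proteins with trypsin and chymotrypsin, each at 11 concentrations in threefold dilutions together with a no-protease condition. The mini-proteins were under 80 residues, had no cysteine, sat in a PA-tagged cDNA display construct, and were kept only if AlphaFold2 dimer inter-PAE was above 15. From the counts, Bayesian fitting gave K50, and unfolding free energy was derived against a sequence-predicted unfolded-state K50 and a shared folded-state K50, per protease or combined.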

[2] = folding stability dG unfold from chymotrypsin proteolysis; higher = more stable
Outline: as §1

[3] = folding stability dG unfold (combined trypsin and chymotrypsin); higher = more stable
Outline: as §1

Sequence	folding stability dG unfold [1]	folding stability dG unfold [2]	folding stability dG unfold [3]
SSPANITTTTTSSPLNLETFDPKTGKKKRINYTLTTETVTFPGGEVVTTTVLKDASTGKVTTLSTTVTPTSA [r9_402_JUSTAS]	0.773 ± 0.081 kcal/mol	1.22 ± 0.14 kcal/mol	1.08 ± 0.12 kcal/mol
SSPEEMAEKLAKELNFDKIEIKTEKLDLPSGPSEATVATAKLYNPATGKEYVVKILKFPDGSYEIVIEKKSA [r9_724_JUSTAS]	1.44 ± 0.042 kcal/mol	2.627 ± 0.015 kcal/mol	2.28 ± 0.07 kcal/mol
SSPLINILTVEVTAETPSGGSFSKTFTFPASKYTEEEIREKIKEEYPDLTDIKITPKVTKIPPGPKILLASA [r9_841_JUSTAS]	1.29 ± 0.07 kcal/mol	1.98 ± 0.18 kcal/mol	1.76 ± 0.18 kcal/mol
SSSLDYVFKDIDPSSPNKLTLSEIKPVPESDKVVNKIVFPTKTILVTFDSAEDAEAHIGLLLKLFGSPPESA [r9_258_TrMRF]	0.66 ± 0.044 kcal/mol	0.924 ± 0.12 kcal/mol	0.852 ± 0.1 kcal/mol
SSSSEVKVERYPDSYLVTITIREGDKEVGTLSYPLNGSLTVEEVLEEVQKRYPDLPVSFSTSVPVPPPAPSA [r9_364_JUSTAS]	3.46 ± 0.11 kcal/mol	3.88 ± 0.073 kcal/mol	3.8 ± 0.13 kcal/mol
SSSSMKTITLEKKITSPEEAEALREELLKKGYEVEVKVYPHPDSYIAKITVTIEVPPPPLSPTNPSALLKSA [r9_863_JUSTAS]	1.19 ± 0.061 kcal/mol	0.913 ± 0.2 kcal/mol	0.967 ± 0.22 kcal/mol
SSSSSRTIEYPDSTLELTFTTTPLPDDTYRVPVQVTRYDPVTKTWSTRNLTVPFPPSDPEAAAEAVIARLLS [r1_171_JUSTAS]	0.11 ± 0.1 kcal/mol	0.39 ± 0.11 kcal/mol	0.355 ± 0.092 kcal/mol
SSSVSVTRTRDPRTGRLVVTVSMNYEDDPEEAVEAAKALLEAAGLDVAEVLSITVDPSTGTVTIPIAVAPSA [r9_876_JUSTAS]	2.79 ± 0.062 kcal/mol	3.15 ± 0.076 kcal/mol	3.05 ± 0.064 kcal/mol
SSVPADAAPVTVTETVTVTLPVDTATGGVPEERVAAAREAAAARGFTEFTVTTDPAAGTVTVTVTRTSRVSA [r9_201_JUSTAS]	0.77 ± 0.055 kcal/mol	1.27 ± 0.035 kcal/mol	1.11 ± 0.054 kcal/mol
SSYTVLEEKVESDPNKDSLTYLTLKTPDGRELTVTEPVKKVDDSWITNSTLTDPVGGRTTTSTTTVKLSGSA [r9_269_JUSTAS]	-0.977 ± 0.29 kcal/mol	-0.409 ± 0.17 kcal/mol	-0.487 ± 0.13 kcal/mol
STIMIMFRSPEDLEKFLNEAKEMIRNGKNVPITIMAHGPNGRYWMFTIDIKMDPDGNPKIEIEWEPVPPDSA [r9_1023_TrROS]	3.23 ± 0.1 kcal/mol	4.24 ± 0.043 kcal/mol	3.89 ± 0.099 kcal/mol
STSTTITYPTLTISVEESVLPDGTPRYTVTLHLPEKGVSIPVEVDSAAEAEEAVREAIRKLLPDETVEEESA [r9_749_JUSTAS]	2.24 ± 0.12 kcal/mol	2.24 ± 0.16 kcal/mol	2.23 ± 0.2 kcal/mol
SVIIYMPWDNIPNMLRQLKALAKNGQKPVTIYMPVPEDWRRELREWLDDYGITVEPHPDNDWYKIEIEPKSA [r9_600_TrROS]	2.54 ± 0.069 kcal/mol	3.318 ± 0.0095 kcal/mol	3.09 ± 0.077 kcal/mol
SVIKLPIWYPNSPAEQAEEMVQSLARKFMDKYGLKIDVEVETRRDPDGKPRWVRIEATIQYRDEDGKPIFSA [r9_21_TrROS]	1.81 ± 0.084 kcal/mol	2 ± 0.073 kcal/mol	2.07 ± 0.26 kcal/mol
SVPVAPDKTYEIENIEEGNYLIKGLTLTPLPDGSVKIDKDIEPIEIPPKPPPLKYDPVKGGFIKPNDPLLSA [r9_603_JUSTAS]	0.319 ± 0.08 kcal/mol	0.592 ± 0.19 kcal/mol	0.434 ± 0.14 kcal/mol
SWKIKISIERTGDWITVKIWYDNPSELRNAIEMIAEKLGMKVEIDDVSWKRDPNGWYEATITVRIKPGMPSA [r9_102_TrROS]	3.27 ± 0.18 kcal/mol	3.31 ± 0.077 kcal/mol	3.42 ± 0.16 kcal/mol
SWQIKEVFPLPNGMRIKVYIHPDGYVQVSIRMYRPNPNDGKPQRQRFSITVPLPPGKPPSIDDILDYILNSA [r9_614_TrROS]	2.36 ± 0.051 kcal/mol	2.24 ± 0.21 kcal/mol	2.44 ± 0.22 kcal/mol
